These results are taken from patent US6319890A, “Inhibition of binding of complement Factor H” (priority 1996, dated 2001).

One experiment has as its target CFH (Homo sapiens, UniProt P08603). The conditions noted are these: described in earlier publications of Pinter et al.; cited from earlier work.
In experiment [1] the target is T1, binding of peptide A to HIV-derived target peptides #SA2, #12, #18 (Human immunodeficiency virus type 1 group M subtype B, UniProt P03377).
T1 construct: His Glu Asp Ile Ile Ser Leu Trp Asp Gln Ser Leu Lys Pro Cys, Env; 105-119; Ile Asn Asn Thr Tyr THr Ser, Env; 621-645; Leu Asp Lys Trp Ala Ser, Env; 650-673; made in house; host or cells: chemical synthesis (synthetic peptides)
The experiment is described as follows: Competition of the binding of biotin-labelled peptide A to HIV-derived peptides. The text has this: This interaction was competed by peptide A itself, by the envelope peptides #SA2 Sequence I.D. #20, #12 Sequence I.D. #22 and #18 Sequence I.D. #21 but not by peptide #53 Sequence I.D. […]. Therefore, the three HIV-derived peptides seem to share functional homology with respect to the interaction with CFH since they all bind to the same region on SEQ. ID NO: 1.

In experiment [2] the target is T2, binding of CFH to the HIV envelope peptides #SA2 (gp120), #18 and #12 (gp41) (Human immunodeficiency virus type 1 group M subtype B, UniProt P03377).
T2 construct: His Glu Asp Ile Ile Ser Leu Trp Asp Gln Ser Leu Lys Pro Cys, Env; 105-119; Ile Asn Asn Thr Tyr THr Ser, Env; 621-645; Leu Asp Lys Trp Ala Ser, Env; 650-673; made in house; host or cells: Env peptides: chemical synthesis; CFH: purified from normal human plasma (or fresh plasma used as the CFH source)
The conditions noted are these: target peptides preincubated with competitor, washed, before CFH. The procedure:
Synthetic peptides and recombinant proteins were dissolved in Carbonate-bicarbonate buffer, 50 mM, pH 9.2 at 50 μg/ml (micrograms per milliliter) and 10 μg/ml, respectively, distributed in 100 μl aliquots into flat-bottomed 96-well ELISA plates (Greiner, Germany) and left at 37° C. for 3 hours. The plates were then washed three times in phosphate-buffered saline (PBS) and the wells were overcoated with a 3% (w/v) solution of bovine serum albumin (BSA) in PBS. The CFH source (either from fresh plasma or from plasma subjected to subsequent purification steps), was diluted to the appropriate concentration (1 mg/ml) in PBS-BT (=PBS containing 1% BSA and 1% Tween 20), pH 7.0 and exposed to the solid phase for one hour at 37° C. After washing in PBS+1% Tween 20 (=PBS-T), bound CFH was detected by the use of specific, biotin-labelled MAb 5H5, Pinter et al., AIDS Research & Human Retroviruses 11: 971, and peroxidase-labelled streptavidin (Sigma, Italy). The reaction was developed with o-phenylene-diamine/H2 O2 for fifteen minutes and then stopped by the addition of 4N H2 SO4. Absorbance was detected at […] with a MT450 microplate reader (BioRad).
Along with the above-described assay, a preincubation assay was also conducted with peptides. […] The solid phases were washed in PBS-T and CFH was detected with the biotin-labelled MAb 5H5 as previously described.

The target of experiment [3] is T2, binding of CFH to the HIV envelope peptides #SA2 (gp120), #18 and #12 (gp41). The conditions noted are these: previous work, Pinter et al., AIDS Research & Human Retroviruses 11:577; cited from earlier work.
Experiment [4] shares this target. The conditions noted are these: competitor added simultaneously with CFH; ELISA, solid-phase peptides #SA2, #18, #12.
Experiment [5] deals with T3, gp41-derived peptide #18 (Env. 621-645) (Human Immunodeficiency Virus).
T3 peptide: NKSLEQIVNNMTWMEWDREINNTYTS
The experiment is described as follows: competition ELISA against CFH; inhibition due to interaction of peptide A with the solid phase (preincubation gave the same effect).

In experiment [6] the target is T4, gp120-derived peptide #SA2 (Env. 105-119) (Human Immunodeficiency Virus).
T4 peptide: HEDIISLWDQSLKPC
Described as above.

Experiment [7] addresses T5, gp41-derived peptide #12 (Env. 650-673) (Human Immunodeficiency Virus).
T5 peptide: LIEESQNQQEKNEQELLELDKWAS
The description is as above.

Experiment [8] deals with T3, gp41-derived peptide #18 (Env. 621-645). In words: competition ELISA against CFH binding to the immobilised envelope peptide.
For experiment [9], the target named is T4, gp120-derived peptide #SA2 (Env. …). Described as above.
Experiment [10] deals with T5, gp41-derived peptide #12 (Env. 650-673). The description is as above.

T2 sequence (P03377 621-645, other chains not shown): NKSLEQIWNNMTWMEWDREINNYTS
Chain of CFH (P08603 19-1231): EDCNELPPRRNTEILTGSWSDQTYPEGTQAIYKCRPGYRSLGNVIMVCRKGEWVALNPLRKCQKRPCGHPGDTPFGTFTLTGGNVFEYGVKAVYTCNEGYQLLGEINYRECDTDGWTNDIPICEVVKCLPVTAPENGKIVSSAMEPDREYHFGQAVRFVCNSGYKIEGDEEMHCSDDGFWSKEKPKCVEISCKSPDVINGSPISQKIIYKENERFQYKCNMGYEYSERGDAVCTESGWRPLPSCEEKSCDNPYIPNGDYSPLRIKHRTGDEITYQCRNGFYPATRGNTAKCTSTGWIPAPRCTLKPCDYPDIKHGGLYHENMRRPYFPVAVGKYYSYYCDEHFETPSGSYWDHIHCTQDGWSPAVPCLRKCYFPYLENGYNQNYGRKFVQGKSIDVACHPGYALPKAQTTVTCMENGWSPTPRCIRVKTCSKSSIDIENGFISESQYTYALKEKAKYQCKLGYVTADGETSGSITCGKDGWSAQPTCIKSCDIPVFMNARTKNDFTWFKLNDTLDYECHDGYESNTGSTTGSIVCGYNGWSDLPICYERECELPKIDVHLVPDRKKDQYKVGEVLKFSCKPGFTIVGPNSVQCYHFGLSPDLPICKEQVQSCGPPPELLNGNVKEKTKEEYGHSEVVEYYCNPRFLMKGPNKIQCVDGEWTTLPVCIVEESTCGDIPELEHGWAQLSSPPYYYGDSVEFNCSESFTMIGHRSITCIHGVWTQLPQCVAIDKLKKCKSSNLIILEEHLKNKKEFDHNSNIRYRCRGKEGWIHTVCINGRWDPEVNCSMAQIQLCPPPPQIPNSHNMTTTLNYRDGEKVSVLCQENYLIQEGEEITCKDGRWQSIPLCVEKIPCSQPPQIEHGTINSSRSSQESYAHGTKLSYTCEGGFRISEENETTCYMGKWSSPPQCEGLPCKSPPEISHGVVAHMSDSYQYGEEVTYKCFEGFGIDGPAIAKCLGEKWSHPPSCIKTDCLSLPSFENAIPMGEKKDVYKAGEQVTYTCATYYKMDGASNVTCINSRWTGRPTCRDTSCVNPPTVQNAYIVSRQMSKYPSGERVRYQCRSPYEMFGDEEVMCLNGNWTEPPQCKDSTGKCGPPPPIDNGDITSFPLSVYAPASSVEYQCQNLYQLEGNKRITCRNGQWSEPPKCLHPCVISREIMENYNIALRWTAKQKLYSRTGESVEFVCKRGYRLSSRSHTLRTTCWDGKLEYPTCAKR

On to “Asn Lys Ser Leu Glu Gln Ile Val Asn Asn Met Thr Trp Met Glu Trp Asp Arg Glu Ile Asn Asn Thr Tyr THr Ser (NKSLEQIVNNMTWMEWDREINNTYTS) [#18, gp41-derived HIV envelope peptide, Env; 621-645]”, for which, in the experiment with CFH, the “CFH binding to the HIV envelope peptide” value was “targets of CFH binding”. Moreover, the “competition of the binding of biotin-labelled peptide A to HIV-derived peptides” value in [1] is given as “competed”.

Regarding Heparin, the “competition with the binding of CFH to the HIV envelope peptides after preincubation” value in [2] was “inactive”. In experiment [3], the “inhibition of the binding of CFH to HIV and to the target peptides” value is “inhibited”. Also, the “competition with the binding of CFH to the HIV envelope peptides” value in [4] is reported as “competed”.

On to AIDKLKKCKSSNLIILEEHLKNKKEFDHNS [Peptide A], for which the binding result in [5], in experiment [6] and in experiment [7] was “binds” throughout.

Regarding KEFDHNSNIRYRCR [peptide b11], the binding result in experiment [8], in experiment [9] and in experiment [10] was “binds” each time.

In the case of IRYRCRGKEGWIHTVCINGRWDPEVNCS [Peptide B], the binding result in [8], in experiment [9] and in [10] was “no binding (tested: 0 to 50 µg/ml)” each time.
